# Assay: yeast display, Sf9 membrane polyspecificity reagent, FACS + sequencing; frameworks hold sequencing errors
# In short: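 Polyreactivity labels are assigned by the sorting gate from which each nanobody was recovered. The gates were low and high (top ~1%), set on anti-HA fluorescence for expression and streptavidin fluorescence for reagent binding. Before sorting, galactose-induced (36–48 hours) yeast display cells were stained for 1 hour at 4 °C with 10% biotinylated, detergent-solubilized Sf9 membrane reagent.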
row,Sequence,polyreactivity (PSR sort gate)
1,QVQLVESGGGLVQAGGSLSLSCDASGRIFPKYAMGWYRQAPGKEREMVAGITKLVGSTYYADSVKGRFTISRDNAKNTVYLQMNSLKPEDTAVYYCAADYSYLIDYLDPEKEGMDFWGQGTQVTVSS,low polyreactivity
2,QVQLVESGGGLVQAGGSLRLSCAASGSIFYIYAMGWYRQAPGKETELVASISRSGGSTYYADSVKGRFTISRDNAKNTVYLQMNSLKPEDTAVYYCAAVITFYRYPPGETYYYWGQGTQVTVSS,high polyreactivity
3,QVQLVESGGGLVQAGGSLRLSCAASGFIFYYNAMGWYRQAPGKERELVATITSGGSTNYADSVKGRFTISRDNAKNTVYLQMNSLKPEDTAVYYCAAGHSWVYGYDYWGQGTQVTVSS,low polyreactivity
4,QVQLVVSGGGLVQAGGSLRLSCAASGFTFIVNAMGWYRQAPGKERELVAAISWNGGSTYYADSVKGRFTISRDNAKNTVYLQMNSLKPEATAVYYCAAVRYNSRGSTTPSEMYYWGQGTQVTVSS,low polyreactivity
5,QVQLVESGGGLVQAGGSLRLSCAASGSTFGLYAMGWYRQAPGKEREFVAAITASGGRTYYADSVKGRFTISRDHAKNTVYLQMNSLKPEDTAVYYCNSRTSHYDKYGYWGQGTQVTVSS,high polyreactivity
6,QVQLVESGGGLVQAGGSRLICAASGLIFIWYTMGWYRQAPGKERELVAAIDSSGGNTYYADSLKGRFSISRDNAKNTVYLQMNSLKPEDTAVYYCAKDVGHGAGNLMGYWGQGTQVTVSS,low polyreactivity
7,QVHLVESGGGLVQAGGSLRLSCAASGSILLWNTMGWYRQAPGKERELVADIRLSASSTYYADSVKGRFTISRDNAKNTVYLQMNSLKPEDTAVYYCAADEYTPEYCQGYDYWGQGTQVTVSS,low polyreactivity
8,QVQLVESGGGLVQAGGSLRLSCAASGRIFVYYAMGWYRQAPGKERELVAAITYSVDSTYYADSVKGRFTISRDNAKNTVYLQMNSLKPEDTAVYYCATDVDLAYGYQYEYWGQGTQVTVSS,low polyreactivity
9,QVQLVESGGGLVQAGGSLRLSCAASGRTFTSYAMGWYRQAPGKERELVAVITRRGGSTSYADSVKGRFTISRDNAKNTVYLQMNSLKPEDTAVYYCAAKRTWPDVKYIRYGYWGQGTQVTVSS,high polyreactivity
10,QVQLVESAGGLVQAGGSLRLSCAATGSIFHPYAMGWYRQAPGKERELVASITSSGGSTYYADSVKVRFTISRENAKNTVYLEMNSLKPEDTAVYYCKAQFLVYFFWYSTTAYIMYYWGQGTQVTVSS,low polyreactivity
11,QVQLEESGGGLVQAGGSLRLSCAASGRIFVIYAMGWYRQAPGKERELVAVITSGGRTYYADSVNGRFTISRDNAKNTVYLQMNRLKPEDTAVYYCAARTGRGFEYWGQGTQVTVSS,high polyreactivity
12,QVQLVESGGGLVQAGGSLRLICAASGFTYSWYAMGWYRQAPGKERELVAAISWDGDSTYYADSVKGRFTISRDIAKNSVYLQMISLKPEDTAVYYCAADFSYYWVGYDYWGQGTQVTVSS,high polyreactivity
13,QVQLVESGGGLVQAGGSLRLSCAASGSTISYYAMGWYRQAPGKERELVAAITWNGGSTYYADSVKGRFTISRDNAKNTVYLQMNSLKPEDTAVYYCAKDTYYYDYDYWGQGTQVTVSS,low polyreactivity
14,QVQLVESGGGLVQAGGSLRLSCAASGSIFRSYAMGWYRQAPGKERELVAGISYSGGSTYYADSVKGRFTISRDNAKNTVYLQMNSLKPEDTAVYYCATVSYYDRYDYDYWGQGTQVTVSS,low polyreactivity
15,QVQLVEAAGGLVQAGGSLRLSCAASGSIFRNNAMGWYSPAPGKARELVAVISRRSGNTYYADSVKGRLTISRENAKNPVYLLMNSLKPEDSAVYYCAADYSNSSIRGDYWGQGTEVTVSS,low polyreactivity
16,QVQRVESGGGLVQAGGRLRLSCAASGRIFIYYAMGWYRQAPGKERELVAAISSSGASTYYADSVKGRFTISRDNAKNTVYLQMISLKPEDTAVYYCAALYYRGGAFPLDYWGQGTQVTVSS,low polyreactivity

row,Sequence,polyreactivity (PSR sort gate)
1,QVQLVESGGGLDQAGGSLRLSCAASGFIFYDYDMGWYRQAPGKERELVAAISDGGSTNYADSVKGRFTISRDNAKNTVYFQRNSLKPEDTAVYYCAKDGFVYYDYFQYIEYDYWGQGTQVTVSS,low polyreactivity
2,QVQLVESGGGLVQAGGSLRLSCAASGRIFNYNTMGWYRQAPGKERELVAAINFSGDRTYYADSVKGRFTISRDISKNTVYLQMNSLKPEDTAVYYCAAQGYWYGYQPGNYWGQGTQVTVSS,high polyreactivity
3,QVQLVESGGGLVQAGGSLRLSCAASGSIFRPNALGWYRQAPGKERELVAAITWSGDSTYYADSVKGRFTISRDNAKNTVYLQINSLKPEDTAVYYCAVVSYKVTESGIRMYYWGQGTQVTVSS,low polyreactivity
4,QVQLVESGGGLVQAGGSLRLSCAASGITLVRYAMGWYRQAPGKERELVAAISSSGGSTYYADSVKGRFTISRDTAKNTVYLQMNSLKPEDTAVYYCNAYVHSRRVEFNYWGQGTQVTVSS,high polyreactivity
5,QVQLVESGGGLVQAGGSLRLSCAASGSIFRSYAMGWYRQAPGKERELVASISRRGGSTYYADSVKGRFTISRDNAKNTVYFQMNSLKPEDTAVYYCAAVRYNSRVSTTPSEMYYWGQGTLVTVSS,low polyreactivity
6,QVQLVESGGGLVQAGGSLRLSCAASGSIFPYYAMGWYRQAPGKERELVAAITGAGSTNYADSVKGRFTISRDNAKNTVYLQRNSLKPEDTAVYYCAADFGSPDKWRDWYDYWGQGTQVTVSS,low polyreactivity
7,QVQLVESGGGLVQAGGSLRLSCAASGRIGYYVMGWYRQAPGKERELVAAISRSGDSTYYADSVKGRFTISRDNAKNTVYLQMNSLKPEDTAVYYCAAASGWRYFYKYDYWGQGTQVTVSS,high polyreactivity
8,QVQLVESGGGLVQAGGSLRLSCAASGRILQGYAMGWYRQAPGKERELVASIRTGGTTNYADSVKGRFTISRDNAKNTVYLQMNSLKPEDTAVYYCNLGYYSYYGRYYYWGQGTQVTVSS,high polyreactivity
9,KVQLVESGGGLVQAGGSLRLSCAASGNIFIPYAMGWYRQAPGKEREFVAVISTRGGSTYYADSLKGRFTISRDNAKNTVYLQMNSLKPEYTAVYYCAAGALGPRIKGWWFRRSFFYWGQGTQVTVSS,high polyreactivity
10,QVQRVESGGGLVQAGGSLRLSCAASGFIFRRYAMGWYRQAPGKERELVASISSGGNTNYADSVKGRFTISRDNAKNTVYLQMNSLKPEDTAVYYCNDEYRWIAYGYWGQGTQVTVSS,high polyreactivity
11,QVQLVESGGGLVQARGSLRLSCAASGSIFYGNAMGWYRQAHGKERELVAAISQSGGSTYYADSVKGRFTISRDNAKNTVYLQMNSLKPEDTAVYYCAAYTPYATWRYDYWGQGTQVTVSS,low polyreactivity
12,QVQLVESGGCLFQEGGSLRLSCSASGRIFNTYAMVWYRQAPGKERELVARISSGGTTYYADSVKGRFTISRDNAKNTVYLQMNSLKPEDTAVYFCNVRAVTPTRSRPFRYDYWGQGTQVTVSS,high polyreactivity
13,QVQLVESGGGLVQAGGSLRLSCAASGRIFENNAMGWYRQAPGKERELVAAITSSGGRTYYADSVKGRFTISRDNAKNTVYLQMNSLIPEDTAVYYCNAYQYYERYDTYLFRYDYWGQGTQVTVSS,low polyreactivity
14,QVQLVESGGGLVQAGGSLRLSCAASGFIFRYYAMGWYRQAPGKERELVASIVWSGGNTYYADSVKGRFTISRDNAKNTVYLQMNSLKPEDTAVYYCNRRGMDWGQGTQVTVSS,low polyreactivity
15,QVQLVESGGGLVQAGGSLRLSCAASGRIFWWYAMGWYRQAPGKERELVAVIDDSGGITYYADSVKGRFTISRDNAKNTVYLQRNSLKPEDTAVYYCANYYWGQGTQVTVSS,low polyreactivity

# Reference: the nanobody polyreactivity screen of Harvey et al. (2022)
